Test results as given in PMC6859848 (2019).
Like-named read-outs stand apart in the source and are kept apart here. Blank lines part the entries; values can stand above or below the molecule they belong to.

Key:
[1] = tested on: rG1 (5'-Alexa Fluor 647) (RNA, G4) ACCGGGGCAGGGGAAGAGGGGG; test: fluorescence quenching titration; conditions: K+ 100 mM (KCl); 10 mM Tris, 5% DMSO; 100 nM RNA; single site fit; apparent
HNRNPH1 full-length [2] = molecular target: T1, HNRNPH1 full-length (UniProt P31943 1-449); test: antibody-based RNA binding assay
T1 sequence: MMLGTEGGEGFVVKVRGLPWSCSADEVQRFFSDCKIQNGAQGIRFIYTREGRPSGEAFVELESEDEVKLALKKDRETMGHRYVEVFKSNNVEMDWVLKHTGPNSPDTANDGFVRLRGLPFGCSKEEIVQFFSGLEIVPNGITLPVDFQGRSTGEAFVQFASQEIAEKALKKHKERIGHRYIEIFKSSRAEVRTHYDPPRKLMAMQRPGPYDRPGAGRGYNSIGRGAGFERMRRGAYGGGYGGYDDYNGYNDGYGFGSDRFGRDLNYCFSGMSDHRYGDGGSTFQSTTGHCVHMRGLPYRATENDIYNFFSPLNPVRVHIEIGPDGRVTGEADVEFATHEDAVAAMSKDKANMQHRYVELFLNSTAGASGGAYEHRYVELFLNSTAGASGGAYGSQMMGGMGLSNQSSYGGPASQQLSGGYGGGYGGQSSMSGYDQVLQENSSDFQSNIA

HNRNPH1 full-length [3] = molecular target: T1, HNRNPH1 full-length; test: EMSA
HNRNPH1 delta1-103 = molecular target: T2, HNRNPH1 delta1-103 (UniProt P31943 104-449, del1-103); test: SPR
T2 sequence: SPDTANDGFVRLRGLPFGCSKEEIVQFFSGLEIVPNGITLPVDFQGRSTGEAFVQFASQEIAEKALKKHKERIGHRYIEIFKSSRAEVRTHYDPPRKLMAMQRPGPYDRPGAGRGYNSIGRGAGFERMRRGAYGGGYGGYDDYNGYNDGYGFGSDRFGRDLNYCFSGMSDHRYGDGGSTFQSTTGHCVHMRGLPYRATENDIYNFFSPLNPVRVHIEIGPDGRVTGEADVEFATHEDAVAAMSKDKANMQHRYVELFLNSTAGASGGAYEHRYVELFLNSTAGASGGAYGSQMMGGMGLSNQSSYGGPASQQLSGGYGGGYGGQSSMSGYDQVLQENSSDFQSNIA

HNRNPH1 qRRM2 = molecular target: T3, HNRNPH1 qRRM2 (UniProt P31943 103-194); test: SPR
T3 sequence: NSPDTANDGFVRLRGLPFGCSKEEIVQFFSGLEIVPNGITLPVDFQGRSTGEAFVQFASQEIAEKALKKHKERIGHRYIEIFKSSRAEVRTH

HNRNPH1 qRRM1-2 = molecular target: T4, HNRNPH1 qRRM1-2 (UniProt P31943 1-194); test: SPR
T4 sequence: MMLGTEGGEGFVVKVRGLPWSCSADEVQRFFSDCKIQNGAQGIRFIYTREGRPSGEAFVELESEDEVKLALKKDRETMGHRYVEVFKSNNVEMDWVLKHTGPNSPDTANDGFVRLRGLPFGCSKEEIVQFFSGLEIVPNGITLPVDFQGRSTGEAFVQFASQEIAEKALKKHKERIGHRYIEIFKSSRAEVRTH

HNRNPH1 qRRM3 = molecular target: T5, HNRNPH1 qRRM3 (UniProt P31943 277-381); test: SPR
T5 sequence: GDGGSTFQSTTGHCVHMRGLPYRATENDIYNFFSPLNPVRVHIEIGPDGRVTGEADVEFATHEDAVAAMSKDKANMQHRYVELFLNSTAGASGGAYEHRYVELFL

[4] = molecular target: T6, HNRNPH1 qRRM2-3 (qRRM2-GYR-qRRM3) (UniProt P31943 103-381); test: SPR
T6 sequence: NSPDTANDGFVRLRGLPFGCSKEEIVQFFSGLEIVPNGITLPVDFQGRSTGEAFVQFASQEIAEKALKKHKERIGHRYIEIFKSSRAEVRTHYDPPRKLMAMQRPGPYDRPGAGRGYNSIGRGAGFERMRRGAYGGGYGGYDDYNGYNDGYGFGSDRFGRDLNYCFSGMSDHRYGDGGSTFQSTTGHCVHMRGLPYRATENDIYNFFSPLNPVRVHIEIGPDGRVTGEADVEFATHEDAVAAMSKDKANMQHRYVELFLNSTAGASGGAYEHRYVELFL

HNRNPH1 full-length [5] = molecular target: T1, HNRNPH1 full-length; test: SPR
HNRNPH1 qRRM1 = molecular target: T7, HNRNPH1 qRRM1 (UniProt P31943 1-102); test: SPR
T7 sequence: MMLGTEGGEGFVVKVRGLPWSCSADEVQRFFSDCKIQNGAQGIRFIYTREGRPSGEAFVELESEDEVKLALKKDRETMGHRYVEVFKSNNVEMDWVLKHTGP

HNRNPH1 full-length [6] = molecular target: T1, HNRNPH1 full-length; test: EMSA; remark: listed apart in the source
HNRNPH1 full-length [7] = molecular target: T1, HNRNPH1 full-length; test: competition

- KD^app [1]: 4600 nM
Molecule: NCCOc1cc(C(=O)Nc2cc(OCCN)c3ccccc3n2)nc(C(=O)Nc2cc(OCCN)c3ccccc3n2)c1

B1: rG1 3'-biotin (structured_RNA)
RNA: ACCGGGGCAGGGGAAGAGGGGGAUU
- Kd (HNRNPH1 full-length [2]): 30 ± 2 nM

B2: rG2b (ssRNA)
RNA: GUGGGCGGGGAGGAGGACGCGGUGGAAU
- binding result (HNRNPH1 full-length [3]): binds

B3: rG2a (ssRNA)
RNA: AGCAGAGGUGGGCGGGGAGGAGGAC
- binding result (HNRNPH1 full-length [3]): binds

B4: rG1 5'-biotin (SPR) (structured_RNA)
RNA: ACCGGGGCAGGGGAAGAGGGGG
- Kd (HNRNPH1 delta1-103): 2.4 nM
- Kd (HNRNPH1 qRRM2): 22 nM
- Kd (HNRNPH1 qRRM1-2): 1.5 nM
- Kd (HNRNPH1 qRRM3): 315 nM
- Kd [4]: 97 nM
- Kd (HNRNPH1 full-length [5]): 4.8 nM
- Kd (HNRNPH1 qRRM1): 30 nM

B5: Linker (ssRNA)
RNA: GAUCGUGGAGGCAUGAGCAGAGGUG
- binding result (HNRNPH1 full-length [6]): no binding

B6: rG1 nonbiotinylated competitor (structured_RNA)
RNA: ACCGGGGCAGGGGAAGAGGGGGAUU
- IC50 (HNRNPH1 full-length [7]): 84 nM
